Reference: PMC11706664, “Structure of WzxE the lipid III flippase for Enterobacterial Common Antigen polysaccharide” (Open Biology, 2025)
Values belong to the binder of their own block, whether it stands above or below them.

Key:
[1] = target: T1, WzxE, the lipid III flippase from Escherichia coli (E. coli K-12 MG1655, UniProt P0AAA7, V inserted between M1 and S2 (worked out from the letters of primer WzxE-F, …)); assay: crystal structure; WzxE-Nb10-Nb7 complex (Nb7 added to pre-formed WzxE-Nb10), with und-PP-GlcNAc or nerol-PP-GlcNAc added, lipidic cubic phase, 20°C; outward-facing conformation (PDB 9G9M, 9G9O); conditions: both partners purified
T1 construct: His10 removed with TEV protease; Residues of the XhoI site and of the TEV site probably stay at the C-terminus after cleavage (surmise); The same construct purified in DDM only was used in the ELISA; also called chain A; source: E. coli C43(DE3), purified from membranes (DM extraction with DDM/OGNG purification, or DDM only; nickel NTA, TEV cleavage, reverse IMAC, SEC); not shown: His10, …

[2] = target: T2, WzxE-Nb10 complex (WzxE held on immobilised biotinylated Nb10-strep II) (Escherichia coli K-12 MG1655 (WzxE), V inserted between M1 and S2 (worked out from the letters of primer WzxE-F, …, biotin (EZ-link Sulfo-NHS-LC Biotin kit))); assay: ELISA; nanobodies screened on the WzxE-Nb10 complex held on Streptactin-coated plates by biotinylated Nb10-strep II; anti-His HRP antibody, read at 410 nm; room temperature; the step of adding the nanobodies is not described
T2 construct: WzxE, E. coli K-12 MG1655, as the chain of m1 (purified in DDM); as the chain of m4 (Nb10 with strep II tag); A complex of a natural membrane protein and a nanobody, so that no single origin fits; not shown: His10, C-terminal, cleaved; strep II, C-terminal, kept
T2 chain: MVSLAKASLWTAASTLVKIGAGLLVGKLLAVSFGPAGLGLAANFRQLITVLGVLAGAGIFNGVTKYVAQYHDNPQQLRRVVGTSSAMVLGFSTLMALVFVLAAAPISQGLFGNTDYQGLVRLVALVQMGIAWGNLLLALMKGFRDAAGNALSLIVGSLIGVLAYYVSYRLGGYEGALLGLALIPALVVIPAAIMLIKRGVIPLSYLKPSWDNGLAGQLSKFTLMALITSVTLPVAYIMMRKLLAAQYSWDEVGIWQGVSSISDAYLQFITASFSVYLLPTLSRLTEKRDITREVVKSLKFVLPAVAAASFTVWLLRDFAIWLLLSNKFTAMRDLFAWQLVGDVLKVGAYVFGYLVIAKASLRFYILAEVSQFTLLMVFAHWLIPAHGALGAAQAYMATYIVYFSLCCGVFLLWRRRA

[3] = target: T1, WzxE, the lipid III flippase from …; assay: SEC; WzxE incubated with nanobody at molar ratio 1:1.2 WzxE:Nb for 2 h at 4°C; co-elution on size exclusion chromatography in buffer B (25 mM Tris pH 7.5, 150 mM NaCl, 5% glycerol, OGNG, DDM); conditions: both partners purified
[4] = target: T1, WzxE, the lipid III flippase from …; assay: ELISA; biotinylated Nb10-strep II (1.62 µM/well) bound on Streptactin-coated plates; WzxE purified in DDM added at 2.78 µM for 1 h; room temperature, 25 mM Tris pH 7.5, 150 mM NaCl, 0.02% DDM, 0.1% BSA, 0.05% Tween-20; conditions: both partners purified

- binding result [1]: binds
- binding result [2]: binds
B1: nanobody Nb7 (CA12482) (VHH)
VHH: QVQLVESGGGLVQAGDSLTLSCAASGRTAYRYGMGWFRQHPGKEREFVASIWWTGTTTYYADSVKGRFTISRDDVKNMVYLQMNSLKPEDTAVYYCAAKFYGGNSKRPGDYAYWGQGTQVTVSS
notes: Raised by llama immunization with WzxE (Nanobody4Instruct), in plasmid pMESy4; In the ELISA it was probably detected by the anti-His HRP antibody (surmise; the methods leave out the step); also called chain C; source: E. coli WK6 (su-), purified (His-Trap, SEC)

- binding result [3]: binds
B2: nanobody Nb10 (CA12485) (VHH)
VHH: QVQLVESGGGLVQAGGSLGLSCAASGRTFSNYVMAWFRQAPGKEREFVARISESRGTTDYADSVKGRFTISRDNAKNTIYLQMNSLNPGDTAVYSCAATLPAWTGIIGGRRPGNYPYWGQGTQVTVSS
notes: Raised by llama immunization with WzxE (Nanobody4Instruct), in plasmid pMESy4; also called chain B; source: E. coli WK6 (su-), purified (His-Trap, SEC)

- binding result [4]: binds
B3: biotinylated Nb10-Strep II tagged protein (VHH)
VHH: QVQLVESGGGLVQAGGSLGLSCAASGRTFSNYVMAWFRQAPGKEREFVARISESRGTTDYADSVKGRFTISRDNAKNTIYLQMNSLNPGDTAVYSCAATLPAWTGIIGGRRPGNYPYWGQGTQVTVSS
notes: as the chain of m2 (Nb10), with the C-terminal hexa-histidine tag exchanged for a strep II tag; source: E. coli WK6 (su-), purified (Strep-tactin beads, SEC), biotinylated; not shown: strep II, C-terminal, kept
